Assays:
[1] = target: T1, Gap1 peptide 222-236 with S234 replaced by E (substitution scan) (S. cerevisiae, UniProt P19145 222-236, S234E); test: peptide or protein array; PEPperCHIP substitution scan of …, 300 peptides in triplicate; 100 or 500 µg/ml GST-Sch9 or GST, 16 h at 4°C; detected with anti-GST DyLight680; settings: both partners purified
T1 construct: source: synthesised on the PEPperCHIP substitution peptide microarray (PEPperPRINT)
T1 peptide (looked up): GVKGYGEAEFVFEFI

[2] = target: T2, Gap1 peptide 222-236 with V232 replaced by E (substitution scan) (S. cerevisiae, UniProt P19145 222-236, 232V replaced by E); test: as above; settings: both partners purified
T2 construct: source: synthesised on the PEPperCHIP substitution peptide microarray (PEPperPRINT)
T2 peptide (looked up): GVKGYGEAEFEFSFI

- fold change of spot intensity against the wild type peptide [1]: > 5 fold
- fold change of spot intensity against the wild type peptide [2]: 3 fold
B1: GST-tagged Sch9 (GST-Sch9) (enzyme, S. cerevisiae, UniProt P11792 1-824, looked up)
chain: MMNFFTSKSSNQDTGFSSQHQHPNGQNNGNNNSSTAGNDNGYPCKLVSSGPCASSNNGALFTNFTLQTATPTTAISQDLYAMGTTGITSENALFQMKSMNNGISSVNNNNSNTPTIITTSQEETNAGNVHGDTGGNSLQNSEDDNFSSSSTTKCLLSSTSSLSINQREAAAAAYGPDTDIPRGKLEVTIIEARDLVTRSKDSQPYVVCTFESSEFISNGPESLGAINNNNNNNNNNQHNQNQHINNNNENTNPDAASQHHNNNSGWNGSQLPSIKEHLKKKPLYTHRSSSQLDQLNSCSSVTDPSKRSSNSSSGSSNGPKNDSSHPIWHHKTTFDVLGSHSELDISVYDAAHDHMFLGQVRLYPMIHNLAHASQHQWHSLKPRVIDEVVSGDILIKWTYKQTKKRHYGPQDFEVLRLLGKGTFGQVYQVKKKDTQRIYAMKVLSKKVIVKKNEIAHTIGERNILVTTASKSSPFIVGLKFSFQTPTDLYLVTDYMSGGELFWHLQKEGRFSEDRAKFYIAELVLALEHLHDNDIVYRDLKPENILLDANGNIALCDFGLSKADLKDRTNTFCGTTEYLAPELLLDETGYTKMVDFWSLGVLIFEMCCGWSPFFAENNQKMYQKIAFGKVKFPRDVLSQEGRSFVKGLLNRNPKHRLGAIDDGRELRAHPFFADIDWEALKQKKIPPPFKPHLVSETDTSNFDPEFTTASTSYMNKHQPMMTATPLSPAMQAKFAGFTFVDESAIDEHVNNNRKFLQNSYFMEPGSFIPGNPNLPPDEDVIDDDGDEDINDGFNQEKNMNNSHSQMDFDGDQHMDDEFVSGRFEI
notes: Sch9 protein kinase of yeast, expressed from pGEX-Sch9 (pGEX-4T-1-Sch9); Plasmid from J. Bergsma; also called GST-Sch9p; source: purified from E. coli (peptide microarrays); not shown: GST, N-terminal, kept

— article PMC7850899, “Nutrient transceptors physically interact with the yeast S6/protein kinase B homolog, Sch9, a TOR kinase target” (Biochemical Journal, 2021)
